In patent US12338199B2, “Bis-octahydrophenanthrene carboxamides and protein conjugates thereof” (REGENERON PHARMACEUTICALS, INC., priority 2017, dated 2025):
Numbering of substitutions follows the chain as printed. Numbers in names are those of the source. Where two headings read alike, the source gives them in different places.

T1: His9-hMSR1 (human MSR1 extracellular domain) (Homo sapiens, UniProt P21757)
T1 construct: human MSR1 extracellular domain expressed with a N-terminal nonahistidine tag; purchased R&D Systems 2708-MS
T1 sequence (P21757 77-451 limits assumed): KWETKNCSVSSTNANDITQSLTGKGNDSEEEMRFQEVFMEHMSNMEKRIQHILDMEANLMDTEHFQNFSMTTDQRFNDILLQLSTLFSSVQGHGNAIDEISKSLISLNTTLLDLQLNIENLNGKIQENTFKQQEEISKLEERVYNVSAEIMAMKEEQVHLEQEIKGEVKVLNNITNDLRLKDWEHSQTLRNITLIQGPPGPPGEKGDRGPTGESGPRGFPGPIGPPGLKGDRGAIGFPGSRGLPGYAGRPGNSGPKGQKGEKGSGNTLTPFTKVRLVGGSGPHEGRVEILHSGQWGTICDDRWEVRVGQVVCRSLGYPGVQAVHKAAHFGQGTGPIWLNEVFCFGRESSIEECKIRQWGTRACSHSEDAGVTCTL

B1: H1H21234N (antibody, V domains shown)
VH: QVQLQESGPGLVKPSETLSLTCTVTGGSISRNYWSWIRQPPGKGLEWIGYIYYSGSIDYNPSLKSRVTISVDTSKNQFSLKLSSMTAADTAVYYCARDRWNWKYGMDVWGQGTTVIVSS
VL: EIVLTQSPGTLSLSPGERATLSCRASQTVRNNYLAWYHQKPGQAPRLLIYGASSRATGIPDRFSGSGSGTDFTLTISRLEPEDFTVYYCHQYGNSPWTFGQGTKMEIKR
B2: H1H21234N-N297Q (antibody, V domains shown)
VH: B1 VH
VL: B1 VL
B3: H1H21234N-N297Q-LP 13 (conjugate)
VH: B1 VH
VL: B1 VL
B4: H1H27729P-N297Q (antibody, V domains shown)
VH: QVQLVESGGGLVKPGGSLRLSCAASGFIFSDYYMSWIRQAPGKGLEWVSYISSSGTTIYGDSVKGRFTMSRDNAKNSLYLQMNSLRAEDTAVYYCARNYALFDYWGQGTLVTVSS
VL: DIQMTQSPSSLSASVGDRVTITCQASQDISKYLNWYQQKPGKAPKLLIYYTSNLETGVPSRFSGSGSGTDFTFTISSLQPEDIATYYCHQSDYLPFTFGPGTKVDIKR
B5: H1H27739P-N297Q (antibody, V domains shown)
VH: EVQLVESGGGLVQPGGSLRLSCTASGFTFSSYAMSWVRQAPGKGLEWVSAISGTGSSTYFTDSVKGRFAISRDNSKNTLYLQMNSLRAEDTAVYYCAKDGEWLSTVTLFDYWGQGTLVTVSS
VL: EIVMTQSPATLSVSPGERATLSCRASQSVSSNLAWYQQKPGQAPRLLIYGASTRATGIPARFSGSGSGTDFTLTISSLQSEDFALYYCQQYFIWPPHPTFGPGTKVDIKR
B6: H1H27754P-N297Q (antibody, V domains shown)
VH: EVQLVESGGGLVQPGGSLRLSCAASGFTFRTYAMTWVRQAPGKGLDWVSAITGDGGNTYYADSVKGRFTISRDNSKNTLYLQMNSLRAEDTAIYYCAKDQRFSFALYYFDYWGQGTLVTVSS
VL: DIQMTQSPSSVSASVGDRVTITCRASQGISSWLAWYQQKPGNAPKLLIYAAFSLQSGVPSRFSGSGSGTDFTLTISSLQPEDFATYYCQQANNFPWTFGQGTKVEIKR
B7: H1H27731P-N297Q (antibody, V domains shown)
VH: QLQLQESGPGLVKPSETLSLTCTVSGGSISRISYYWGWIRQPPGKGLEWIGSIYDSGSTYYNPSLKSRVTISIDTSKNQFSLKLSSVTAADTAVYYCVRYSSSSAFAFDYWGQGTLVTVSS
VL: B6 VL with N42K, F52S, N93S, W96F, Q100P, E105D
B8: H1H27734P-N297Q (antibody, V domains shown)
VH: EVQLVESRGGLVQPGGSLRLSCAASGFTFSSYAMSWVRQAPGKGLEWVSAISGSGGSTFYADSVKGRFTISRDNSKNTVYLQMNSLRAEDTAVYYCAKALVLRFLEWLGDYWGQGTLVTVSS
VL: DIQMTQSPSTLSASVGDRVTITCRASQSISSWLAWFQQKPGKAPKLLIYKASSLESGVPSRFSGSGSGTEFTLTISSLQPDDFATYYCQQYKSYWTFGQGTKVEIKR

What was measured:
[1] = tested on: THP1/LXR-Luc cells; assay: LXR-luciferase reporter bioassay in PMA-differentiated THP1/LXR-Luc cells; format: cell-based, human; settings: for S/N (signal to noise, ratio of RLU of standard one over RLU of standard eight) / EC50: PMA-differentiated THP1/LXR-Luc cells, 48 hours; for S/N (signal to noise, ratio of RLU of standard one over RLU of standard eight): luciferase activity; for EC50: luciferase activity (One-Glo), 10-point dose response 100 nM to 0.01 nM
From the text: To test the efficacy of anti-MSR1 antibody-LXR conjugates in vitro, a cell-based LXR responsive luciferase reporter assay was developed. To generate the assay cell line, a LXR regulated luciferase reporter gene [Cignal Lenti LXR Reporter (luc) kit (Qiagen, Cat # CLS-001L)] was transduced into THP1 cells, and cells were selected for two weeks in puromycin. The lentivirus expresses the firefly luciferase gene under the control of a minimal CMV promoter and tandem repeats of the LXR transcriptional response element. The resulting cell line is referred to as THP1/LXR-Luc cells.
THP1/LXR-Luc cells were seeded onto 96 well plates at 40,000 cells/well in media containing RPMI supplemented with 10% FBS and pencillin/streptomycin and subsequently differentiated with 200 nM Phorbol Myristate Acetate (PMA) for 3 days. After the 3-day differentiation period, three-fold serial dilutions of antibody drug conjugates, unconjugated antibodies, or free payloads in fresh media were added to the cells at final concentration ranging from 100 nM to 0.01 nM. Media alone served as a blank control. Forty-eight hours later, luciferase activity was determined after the addition of One-Glo™ reagent (Promega, Cat # E6130) to each well. Relative light units (RLUs) were measured on a Victor luminometer (PerkinElmer) and EC50 values were determined using a four-parameter logistic equation over a 10-point dose response curve (GraphPad Prism). The signal to noise (S/N) was determined by calculating the ratio of RLU of standard one over RLU of standard eight for each of the unconjugated anti-MSR1 antibodies or free payloads. “LP #” represents a linker-payload for which the corresponding structures are provided elsewhere herein, and “P #” represents a payload for which the corresponding structures are provided elsewhere herein.

[2] = target: T1, His9-hMSR1 (human MSR1 extracellular domain); assay: Biacore surface plasmon resonance binding kinetics; settings: 25° C.; for kd (s^−1) / kd: * = no dissociation observed, kd fixed at 1.00E−05; for Kd: calculated from the kinetic rates, read-out: KD (Molar); for ka: His9-hMSR1 binding to captured antibody
Protocol: The MSR1 antibodies disclosed herein were conjugated to various liver X receptor (LXR) payloads. This example describes how equilibrium dissociation constant (KD) values for human MSR1 reagents binding to human anti-MSR1 antibody-drug conjugates and their corresponding unconjugated parental antibodies were determined using a real-time surface plasmon resonance-based Biacore T200 biosensor.
All binding studies were performed in 10 mM HEPES, 300 mM NaCl, 3 mM EDTA, and 0.05% v/v Surfactant Tween-20, pH 7.4 (HBS-ET) running buffer at 25° C. The Biacore CM4 sensor chip surface was first derivatized by amine coupling with the goat anti-human Fcγ specific polyclonal antibody (Jackson ImmunoResearch Laboratories, Cat # BR-1008-39) to capture anti-MSR1 monoclonal antibodies. Binding studies were performed on human MSR1 extracellular domain expressed with a N-terminal nonahistidine tag (His9-hMSR1; R&D Systems, Cat #2708-MS).
The association rate (ka) and dissociation rate (kd) were determined by fitting the real-time binding sensorgrams to a 1:1 binding model with mass transport limitation using Scrubber 2.0c curve-fitting software. Binding dissociation equilibrium constant (KD) and dissociative half-life (t½) were calculated from the kinetic rates as: […]

[3] = tested on: THP-1 cells; assay: BODIPY-cholesterol efflux in THP-1 macrophages; format: cell-based, human
Protocol: The ability of anti-MSR1 antibody-LXR conjugates to activate cholesterol efflux in a human macrophage cell line (THP-1; ATCC Catalog # TIB-202), was assessed using a fluorescent cholesterol analog.
Cells were differentiated into macrophages by addition of 100 nM Phorbol-12 myristate 13-acetate (Sigma, Catalog #P 8139) to the media and subjected to further incubation for 96 hours.
Percentage of BODIPY-cholesterol efflux was calculated using the following formula: [fluorescence in acceptor media/(fluorescence in acceptor media+fluorescence in cell lysate)]×100. Table 15 provides activated cholesterol efflux for the tested articles, and FIG. 15 illustrates the data in graph form.

| Molecule | Kd [2] [nM] | ka [2] [M⁻¹ s⁻¹] | kd [2] [s⁻¹] | other results |
| --- | --- | --- | --- | --- |
| B1 | – | – | – | stimulation of the THP/Luc cells ([1]; 48-hour time point, in words): did not have any impact |
| B2 | 0.0454 | 220000 | – | kd (s^−1) [2]: ≤ 1.00E−05* s^−1; S/N (signal to noise, ratio of RLU of standard one over RLU of standard eight) [1]: No activation; EC50 [1]: No activation; Maximum efflux (%) ([3]; 24-hour treatment, BODIPY-cholesterol efflux): 18.7%; cholesterol efflux ([3]; after 24 hours, in words): did not demonstrated any measurable cholesterol efflux |
| B3 | – | – | – | S/N (signal to noise, ratio of RLU of standard one over RLU of standard eight) [1]: 9.6; EC50 ([1]; read-out: EC50): 0.98 nM |
| B4 | 8.67 | 105000 | 0.000906 | – |
| B5 | 4.68 | 119000 | 0.000555 | – |
| B6 | 0.0499 | 200000 | – | kd (s^−1) [2]: ≤ 1.00E−05* s^−1 |
| B7 | 0.0855 | 117000 | 1e-05 | – |
| B8 | 7.72 | 77200 | 0.000596 | – |
